The record followed here is US8637043B2, “Compositions useful as ligands for the formyl peptide receptor like 1 receptor and methods of use thereof” (Chemocentryx, Inc., priority 2001, dated 2014).

Values joined by “and” are separate entries in the source; they are usually repeats but may differ in a detail not shown here. Equal entries are not always repeated. “Also recorded” adds a separate entry of the source. Ends that are not written are not given here.

One assay concerns human monocytes. Kind of assay: Migration assay (ChemoTx), human monocytes. The format is cell-based. As to conditions: 90 min, 1-100 nM. As for the experimental part: Migration assays were performed on monocytes and neutrophils. Human monocytes and neutrophils (prepared as in Exampe 2) were harvested and resuspended in chemotaxis medium (CM). The CM consisted of Hank's buffered salt solution (Gibco, Mass.) containing CaCl2 (1 mM) and MgSO4 (1 mM) with added 0.1% BSA (Sigma, St. Louis, Mo.). The assays were performed in 96-well ChemoTx® microplates (Neuroprobe, Mass.). Leukotactin, MlP-1α and chemokines (CKβ8(1-99), CKβ8(25-99), CKβ8-1(1-116) or CKβ8-1(25-116), prepared as in Example 1) were added to the lower wells (final volume 29 μL), and 20 μL of cell suspension (5×10^6 cells/mL for monocytes; 2.5×10^6 cells/mL for neutrophils) added to the polycarbonate filters (5 μm pore size for monocytes; 3 μm pore size for neutrophils). After incubation for 90 min (37° C., 100% humidity, 5% CO2), cells were removed from the upper surface of the filter by scraping. Cells that migrated into the lower chamber were quantified using the Quant cell proliferation assay kit (Molecular Probes, Oreg.).
The chemotactic activity on human monocytes and neutrophils of chemokines: CKβ8(1-99), CKβ8(25-99), CKβ8(1-116) and CKβ8(25-116); W peptides 1 and 2 and the SHAAGtide sequences SEQ ID NO:1 and SEQ ID NO:2 was determined in migration assays. The above peptides were prepared as in previous examples. The migration assays were performed in 96-well CHEMOTX® microplates (Neuroprobe) using the protocol described in Example 5.

The subject of another assay is neutrophils. As to the kind of experiment: Cross-desensitization with leukotactin, neutrophils. The class given is cell-based, human. As for the experimental part: In cross-desensitization tests tests, cells were stimulated sequentially with leukotactin and then the chemokines CKβ8(1-99), CKβ8(25-99), CKβ8-1(1-116), and CKβ8-1(25-116). On HEK293-CCR1 transfectants (prepared as in Example 1), leukotactin induced similar patterns of receptor desensitization to all variants.
Similar receptor cross-desensitization tests were performed using both monocytes and neutrophils (prepared as in Example 2).

The target of another assay is T1, CCR1 (Homo sapiens, UniProt P32246).
T1 construct: full length cDNA encoding CCR1 was cloned by the polymerase chain reaction (PCR) from genomic DNA isolated from human peripheral blood cells; expressed in transfected cells; pcDNA3.1 vector)
T1 sequence (P32246 1-355): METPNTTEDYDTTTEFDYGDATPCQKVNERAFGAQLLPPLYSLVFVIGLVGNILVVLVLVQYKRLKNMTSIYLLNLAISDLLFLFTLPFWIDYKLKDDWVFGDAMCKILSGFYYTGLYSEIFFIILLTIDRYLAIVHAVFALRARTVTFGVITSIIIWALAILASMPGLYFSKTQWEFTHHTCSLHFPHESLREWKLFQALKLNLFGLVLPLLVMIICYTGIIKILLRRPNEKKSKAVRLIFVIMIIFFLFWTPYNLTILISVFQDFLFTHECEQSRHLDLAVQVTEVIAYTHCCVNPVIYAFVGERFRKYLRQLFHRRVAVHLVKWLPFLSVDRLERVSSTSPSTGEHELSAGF
Kind of assay: Intracellular calcium flux in HEK293-CCR1 transfectants. The format is cell-based. As to conditions: 100 nM; for calcium flux: HEK293-CCR1 transfectants; for maximal receptor stimulation compared with leukotactin: same concentration of leukotactin. The procedure:
The human recombinant chemokines, leukotactin, three known CKβ8 variants CKβ8(1-99), CKβ8(25-99), CKβ8-1(1-116) and a novel NH2-terminal truncated form of CKβ8-1, CKβ8-1 (25-116) were obtained from R&D Systems (Minneapolis, Minn.). CKβ8-1(25-116) was compared with the other three variants for the ability to elicit an intracellular calcium mobilization in stable human CCR1 transfected […] cells. Human HEK293-CCR1 cells were prepared using Fugena 6 (Roche, Ind.) following the manufacturer's protocol. The HEK-293 cell lines were maintained in DMEM with 10% FBS supplemented with 800 μg/ml G-418.
Stable expression of human chemokine receptor CCR1 in HEK293 cell was obtained as follows: full length cDNA encoding CCR1 was cloned by the polymerase chain reaction (PCR) from genomic DNA isolated from human peripheral blood cells. The PCR product was cloned into pcDNA3.1 (Invitrogen, Carlsbad, Calif.) using standard molecular cloning procedures and completely sequenced to confirm identity.
Two micrograms of the CCR1/pcDNA3.1 construct were used to transfect the HEK293 cells as follows. FuGENE:DNA complex was prepared by mixing 6.0 μl FuGENE 6 reagent (Roche Molecular Biochemicals, Calif.) and 2 μg CCR1/pcDNA3.1 in 100 ul of serum-free medium (Hyclone, Colo.). After incubating for 30 minutes at room temperature, the complex was added to a 60 mm culture plate containing 0.5-1×10^6 cells in 10 ml DMEM medium supplemented with 10% FBS (Hyclone, Colo.). After mixing, the cells were returned to the incubator to culture at 37° C. for two days. At 48 hours post-transfection, Genetinin (G418) (Mediatech, Herndon, Va.) was added at a final concentration of 800 ug/ml. The cells were then plated in 96-well plates at a concentration of 20,000 cells/well. After 2-3 weeks under G418 selection, stable geneticin-resistant CCR1 expressing cells were assessed for their ability to mobilize calcium in response to MIP-1α at a concentration of 1-500 nM.
Ca^2+ mobilization responses were performed using the intracellular ratiometric fluorescent dye, lndo-1. Cells were loaded with Indo-1/AM (3 μM; Molecular Probes, Eugene, Oreg.) in culture medium (45 min, 20° C., 10^7 cells/ml). After dye loading, cells were washed once with 10 ml PBS) and resuspended at 10^6 cell/ml in HBSS containing 1% FBS. Cytosolic [Ca^2+] release was determined using excitation at 350 nm using a Photon Technology International fluorimeter (excitation at 350 nm, ratioed dual emission at 400 and 490 nm).
With HEKCCR1-293 transfectants, CKβ8-1(25-116) and the other CKβ8 variants induced a rapid calcium flux at 100 nM.
(Calcium assays in cells follow changes in intracellular calcium, usually with a dye or a luminescent sensor.)

Turning to MLWRRKIGPQMTLSHAAG [SEQ ID NO: 1], the migration of monocytes result in the assay on human monocytes was “produced migration”.

B1: CKβ8-1(1-116): alternatively spliced form of CKβ8, 116 amino acids, human recombinant chemokine (protein, listed as Homo sapiens)
chain: RVTKDAETEFMMSKLPLENPVLLDMLWRRKIGPQMTLSHAAGFHATSADCCISYTPRSIPCSLLESYFETNSECSKPGVIFLTKKGRRFCANPSDKQVQVCMRMLKLDTRIKTRKN
Take B1: the migration of monocytes entry in the assay with human monocytes was “moderate activity”. The “desensitization by leukotactin prestimulation” value (shortened to “desensitization”) in the assay with neutrophils is “inactive”. Further, the calcium flux result in the assay with CCR1 is reported as “lower”.

B2: CKβ8-1(25-116): novel NH2-terminal truncated form of CKβ8-1, SEQ ID NO: 16, human recombinant chemokine (protein, listed as Homo sapiens)
chain: MLWRRKIGPQMTLSHAAGFHATSADCCISYTPRSIPCSLLESYFETNSECSKPGVIFLTKKGRRFCANPSDKQVQVCMRMLKLDTRIKTRKN
For B2, the migration of monocytes result with human monocytes was “dramatically higher activity than the other three variants at 100 nM and 1 and 10 nM was very similar to the other variants and produced migration”. Also, the “desensitization” value with neutrophils is reported as “did not desensitize”. Besides, in the assay with CCR1, the “maximal receptor stimulation compared with leukotactin” value was “equivalent to those obtained with the same concentration of the CCR1 agonist, leukotactin” and the calcium flux entry is on record as “high calcium response”.

B3: CKβ8(25-99): known truncated CKβ8 variant, human recombinant chemokine from R&D Systems (protein, listed as Homo sapiens)
chain: RFHATSADCCISYTPRSIPCSLLESYFETNSECSKPGVIFLTKKGRRFCANPSDKQVQVCMRMLKLDTRIKTRKN
For B3, the migration of monocytes result in the assay on human monocytes was “moderate activity”. The “desensitization” value with neutrophils was “inactive”. In the assay with CCR1, the “maximal receptor stimulation compared with leukotactin” value is reported as “equivalent to those obtained with the same concentration of the CCR1 agonist, leukotactin” and the calcium flux result is on record as “high calcium response; also recorded: lower”.
